In publication PMC10434055, “Functional Characterization of Small Alarmone Synthetase and Small Alarmone Hydrolase Proteins from Treponema denticola” (Microbiology Spectrum, 2023):
Read-outs that look alike come from different tables or passages of the source. One block for each molecule: values may come before it.

Legend:
[1] = tested on: T1, Tde-SAS1–246; assay: AMP by-product quantified by Mono Q anion-exchange chromatography; type: biochemical, Treponema denticola; details: 5 mM ATP, 10 mM MgCl2, pH 8.8, 37 °C, no added alarmone
T1 construct: gene TDE1711; N-terminal catalytic domain, residues 1-246, TPR domain removed; pET28a recombinant in E. coli BL21(DE3), IMAC purified; recombinant MW 32,557 Da; homotetramer (SEC ~160 kDa)

[2] = tested on: T2, Tde-SAS; assay: as above; type: biochemical, Treponema denticola; details: 5 mM ATP, 10 mM MgCl2, pH 8.8, 37 °C, no added alarmone
T2 construct: gene TDE1711; full length, 410 aa; pET28a recombinant in E. coli BL21(DE3), IMAC purified; recombinant MW 51,318 Da; homotetramer (SEC ~220 kDa)

[3] = biological target: Treponema denticola small alarmone hydrolase Tde-SAH (TDE1690) (Treponema denticola ATCC 35405); assay: SEC; size-exclusion chromatography of the purified recombinant protein; oligomeric state from the apparent MW against the monomer's calculated MW; column and buffer not given
[4] = biological target: Tde-SAS_(1–246), catalytic domain of Treponema denticola small alarmone synthetase (Treponema denticola ATCC 35405); assay: as above
[5] = biological target: Treponema denticola small alarmone synthetase Tde-SAS (TDE1711) (Treponema denticola ATCC 35405); assay: as above
[6] = substrate: Nc1nc2c(ncn2[C@@H]2O[C@H](COP(=O)(O)OP(=O)(O)OP(=O)(O)O)[C@@H](OP(=O)(O)OP(=O)(O)O)[C@H]2O)c(=O)[nH]1; assay: pyrophosphatase-coupled continuous spectrophotometric phosphate-release assay (EnzChek, MESG/PNP); type: biochemical, Treponema denticola; details: 1 mM MnCl2, pH 8.4, 37 °C
[7] = substrate: Nc1nc2c(ncn2[C@@H]2O[C@H](COP(=O)(O)OP(=O)(O)O)[C@@H](OP(=O)(O)OP(=O)(O)O)[C@H]2O)c(=O)[nH]1; assay: as above; type: biochemical, Treponema denticola; details: 1 mM MnCl2, pH 8.4, 37 °C
[8] = substrate: Nc1nc2c(ncn2[C@@H]2O[C@H](COP(=O)(O)O)[C@@H](OP(=O)(O)OP(=O)(O)O)[C@H]2O)c(=O)[nH]1; assay: as above; type: biochemical, Treponema denticola; details: 1 mM MnCl2, pH 8.4, 37 °C

Molecule: Nc1nc2c(ncn2[C@@H]2O[C@H](COP(=O)(O)O)[C@@H](O)[C@H]2O)c(=O)[nH]1 [GMP]
- Km ([1]; read-out: Km(GMP)): 3.44 ± 0.6 mM
- Km ([2]; read-out: Km(GMP)): 11.7 ± 1.69 mM

- stoichiometry N [3]: 2
Molecule: Treponema denticola small alarmone hydrolase Tde-SAH (TDE1690) (enzyme)

Molecule: Nc1nc2c(ncn2[C@@H]2O[C@H](COP(=O)(O)OP(=O)(O)OP(=O)(O)O)[C@@H](O)[C@H]2O)c(=O)[nH]1 [GTP]
- Km ([1]; read-out: Km(GTP)): 2.91 ± 0.75 mM
- Km ([2]; read-out: Km(GTP)): 6.09 ± 1.01 mM

Molecule: Nc1nc2c(ncn2[C@@H]2O[C@H](COP(=O)(O)OP(=O)(O)O)[C@@H](O)[C@H]2O)c(=O)[nH]1 [GDP]
- Km ([1]; read-out: Km(GDP)): 1.03 ± 0.3 mM
- Km ([2]; read-out: Km(GDP)): 5.29 ± 2.61 mM

- stoichiometry N [4]: 4
Molecule: Tde-SAS_(1–246), catalytic domain of Treponema denticola small alarmone synthetase (domain or fragment)

- stoichiometry N [5]: 4
Molecule: Treponema denticola small alarmone synthetase Tde-SAS (TDE1711) (enzyme)

B1: Tde-SAH (Treponema denticola ATCC 35405) (protein)
chain: MLSFDSNKEFALTRDLGVLKGIYLAPYMQVATALIGKARHAGGNMFRHQVDTMAILIDYGYIDSVLLKASLIHDVIEDIEDFNVNEILSIDSESGQVYELVLEVTKKKGQEKTEYLKNIIKNGSEKAKILKCADRISNMISLGFVTDSEFIERYCNETELYIFPIALEVNFEMYKELMALVVSRRQYLVECGYLEERVKKMRKAR
notes: full length (205 aa in the introduction, 210 aa in the abstract); pET28a recombinant in E. coli BL21(DE3), IMAC purified; recombinant MW 27,091 Da; homodimer (SEC ~44 kDa)
- Km [6]: 0.21 mM
- Km [7]: 0.11 mM
- kcat [7]: 0.79 ± 0.07 s⁻¹
- Km [8]: 0.12 mM
- kcat [8]: 0.54 ± 0.04 s⁻¹
